To fix the notation:
T1: human neuropeptide Y2 receptor (human, UniProt P49146 1-381)
T1 construct: whole, on cells; also called hNPY2 receptor; hNPY2-R
T1 sequence (looked up): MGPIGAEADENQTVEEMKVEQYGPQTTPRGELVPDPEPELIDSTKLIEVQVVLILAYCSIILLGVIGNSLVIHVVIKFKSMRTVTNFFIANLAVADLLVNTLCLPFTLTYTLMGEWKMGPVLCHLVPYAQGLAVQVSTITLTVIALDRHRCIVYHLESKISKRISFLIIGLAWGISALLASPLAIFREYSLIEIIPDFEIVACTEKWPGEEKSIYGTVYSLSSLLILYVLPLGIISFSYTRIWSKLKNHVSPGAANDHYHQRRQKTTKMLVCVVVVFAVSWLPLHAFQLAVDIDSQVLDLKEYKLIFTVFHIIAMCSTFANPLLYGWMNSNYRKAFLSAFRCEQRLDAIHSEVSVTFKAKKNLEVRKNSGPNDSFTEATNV

B1: Compound 133 (peptide)
peptide: Isovaleryl-APEK([AEEA-AEEA-γGlu-C18 diacid])PEEDASPEEVQRYYVELRHYYNWLTRQRY-NH2
SMILES: CC(C)CC(=O)N[C@@H](C)C(=O)N1CCC[C@H]1C(=O)N[C@@H](CCC(=O)O)C(=O)N[C@@H](CCCCNC(=O)COCCOCCNC(=O)COCCOCCNC(=O)CC[C@H](NC(=O)CCCCCCCCCCCCCCCCC(=O)O)C(=O)O)C(=O)N1CCC[C@H]1C(=O)N[C@@H](CCC(=O)O)C(=O)N[C@@H](CCC(=O)O)C(=O)N[C@@H](CC(=O)O)C(=O)N[C@@H](C)C(=O)N[C@@H](CO)C(=O)N1CCC[C@H]1C(=O)N[C@@H](CCC(=O)O)C(=O)N[C@@H](CCC(=O)O)C(=O)N[C@H](C(=O)N[C@@H](CCC(N)=O)C(=O)N[C@@H](CCCNC(=N)N)C(=O)N[C@@H](Cc1ccc(O)cc1)C(=O)N[C@@H](Cc1ccc(O)cc1)C(=O)N[C@H](C(=O)N[C@@H](CCC(=O)O)C(=O)N[C@@H](CC(C)C)C(=O)N[C@@H](CCCNC(=N)N)C(=O)N[C@@H](Cc1c[nH]cn1)C(=O)N[C@@H](Cc1ccc(O)cc1)C(=O)N[C@@H](Cc1ccc(O)cc1)C(=O)N[C@@H](CC(N)=O)C(=O)N[C@@H](Cc1c[nH]c2ccccc12)C(=O)N[C@@H](CC(C)C)C(=O)N[C@H](C(=O)N[C@@H](CCCNC(=N)N)C(=O)N[C@@H](CCC(N)=O)C(=O)N[C@@H](CCCNC(=N)N)C(=O)N[C@@H](Cc1ccc(O)cc1)C(N)=O)[C@@H](C)O)C(C)C)C(C)C
B2: Compound 135 (peptide)
peptide: Isovaleryl-APEK([AEEA-AEEA-γGlu-C18 diacid])PEADASPEELQRYYVELRHYYNWLTRQRY-NH2
SMILES: CC(C)CC(=O)N[C@@H](C)C(=O)N1CCC[C@H]1C(=O)N[C@@H](CCC(=O)O)C(=O)N[C@@H](CCCCNC(=O)COCCOCCNC(=O)COCCOCCNC(=O)CC[C@H](NC(=O)CCCCCCCCCCCCCCCCC(=O)O)C(=O)O)C(=O)N1CCC[C@H]1C(=O)N[C@@H](CCC(=O)O)C(=O)N[C@@H](C)C(=O)N[C@@H](CC(=O)O)C(=O)N[C@@H](C)C(=O)N[C@@H](CO)C(=O)N1CCC[C@H]1C(=O)N[C@@H](CCC(=O)O)C(=O)N[C@@H](CCC(=O)O)C(=O)N[C@@H](CC(C)C)C(=O)N[C@@H](CCC(N)=O)C(=O)N[C@@H](CCCNC(=N)N)C(=O)N[C@@H](Cc1ccc(O)cc1)C(=O)N[C@@H](Cc1ccc(O)cc1)C(=O)N[C@H](C(=O)N[C@@H](CCC(=O)O)C(=O)N[C@@H](CC(C)C)C(=O)N[C@@H](CCCNC(=N)N)C(=O)N[C@@H](Cc1c[nH]cn1)C(=O)N[C@@H](Cc1ccc(O)cc1)C(=O)N[C@@H](Cc1ccc(O)cc1)C(=O)N[C@@H](CC(N)=O)C(=O)N[C@@H](Cc1c[nH]c2ccccc12)C(=O)N[C@@H](CC(C)C)C(=O)N[C@H](C(=O)N[C@@H](CCCNC(=N)N)C(=O)N[C@@H](CCC(N)=O)C(=O)N[C@@H](CCCNC(=N)N)C(=O)N[C@@H](Cc1ccc(O)cc1)C(N)=O)[C@@H](C)O)C(C)C
B3: Compound 138 (peptide)
peptide: Isovaleryl-APAK([AEEA-AEEA-γGlu-C18 diacid])PEEDASPEELQQYYVSLRHYYNWLTRQRY-NH2
SMILES: CC(C)CC(=O)N[C@@H](C)C(=O)N1CCC[C@H]1C(=O)N[C@@H](C)C(=O)N[C@@H](CCCCNC(=O)COCCOCCNC(=O)COCCOCCNC(=O)CC[C@H](NC(=O)CCCCCCCCCCCCCCCCC(=O)O)C(=O)O)C(=O)N1CCC[C@H]1C(=O)N[C@@H](CCC(=O)O)C(=O)N[C@@H](CCC(=O)O)C(=O)N[C@@H](CC(=O)O)C(=O)N[C@@H](C)C(=O)N[C@@H](CO)C(=O)N1CCC[C@H]1C(=O)N[C@@H](CCC(=O)O)C(=O)N[C@@H](CCC(=O)O)C(=O)N[C@@H](CC(C)C)C(=O)N[C@@H](CCC(N)=O)C(=O)N[C@@H](CCC(N)=O)C(=O)N[C@@H](Cc1ccc(O)cc1)C(=O)N[C@@H](Cc1ccc(O)cc1)C(=O)N[C@H](C(=O)N[C@@H](CO)C(=O)N[C@@H](CC(C)C)C(=O)N[C@@H](CCCNC(=N)N)C(=O)N[C@@H](Cc1c[nH]cn1)C(=O)N[C@@H](Cc1ccc(O)cc1)C(=O)N[C@@H](Cc1ccc(O)cc1)C(=O)N[C@@H](CC(N)=O)C(=O)N[C@@H](Cc1c[nH]c2ccccc12)C(=O)N[C@@H](CC(C)C)C(=O)N[C@H](C(=O)N[C@@H](CCCNC(=N)N)C(=O)N[C@@H](CCC(N)=O)C(=O)N[C@@H](CCCNC(=N)N)C(=O)N[C@@H](Cc1ccc(O)cc1)C(N)=O)[C@@H](C)O)C(C)C
B4: Compound 136 (peptide)
peptide: Isovaleryl-APEK([AEEA-AEEA-γGlu-C18 diacid])PEADSSPEELQRYYVSLRHYYNWLTRQRY-NH2
SMILES: CC(C)CC(=O)N[C@@H](C)C(=O)N1CCC[C@H]1C(=O)N[C@@H](CCC(=O)O)C(=O)N[C@@H](CCCCNC(=O)COCCOCCNC(=O)COCCOCCNC(=O)CC[C@H](NC(=O)CCCCCCCCCCCCCCCCC(=O)O)C(=O)O)C(=O)N1CCC[C@H]1C(=O)N[C@@H](CCC(=O)O)C(=O)N[C@@H](C)C(=O)N[C@@H](CC(=O)O)C(=O)N[C@@H](CO)C(=O)N[C@@H](CO)C(=O)N1CCC[C@H]1C(=O)N[C@@H](CCC(=O)O)C(=O)N[C@@H](CCC(=O)O)C(=O)N[C@@H](CC(C)C)C(=O)N[C@@H](CCC(N)=O)C(=O)N[C@@H](CCCNC(=N)N)C(=O)N[C@@H](Cc1ccc(O)cc1)C(=O)N[C@@H](Cc1ccc(O)cc1)C(=O)N[C@H](C(=O)N[C@@H](CO)C(=O)N[C@@H](CC(C)C)C(=O)N[C@@H](CCCNC(=N)N)C(=O)N[C@@H](Cc1c[nH]cn1)C(=O)N[C@@H](Cc1ccc(O)cc1)C(=O)N[C@@H](Cc1ccc(O)cc1)C(=O)N[C@@H](CC(N)=O)C(=O)N[C@@H](Cc1c[nH]c2ccccc12)C(=O)N[C@@H](CC(C)C)C(=O)N[C@H](C(=O)N[C@@H](CCCNC(=N)N)C(=O)N[C@@H](CCC(N)=O)C(=O)N[C@@H](CCCNC(=N)N)C(=O)N[C@@H](Cc1ccc(O)cc1)C(N)=O)[C@@H](C)O)C(C)C
B5: Compound 134 (peptide)
peptide: Isovaleryl-APEK([AEEA-AEEA-γGlu-C18 diacid])PEEDASPEEIQRYYTELRHYYNWLTRQRY-NH2
SMILES: CC[C@H](C)[C@H](NC(=O)[C@H](CCC(=O)O)NC(=O)[C@H](CCC(=O)O)NC(=O)[C@@H]1CCCN1C(=O)[C@H](CO)NC(=O)[C@H](C)NC(=O)[C@H](CC(=O)O)NC(=O)[C@H](CCC(=O)O)NC(=O)[C@H](CCC(=O)O)NC(=O)[C@@H]1CCCN1C(=O)[C@H](CCCCNC(=O)COCCOCCNC(=O)COCCOCCNC(=O)CC[C@H](NC(=O)CCCCCCCCCCCCCCCCC(=O)O)C(=O)O)NC(=O)[C@H](CCC(=O)O)NC(=O)[C@@H]1CCCN1C(=O)[C@H](C)NC(=O)CC(C)C)C(=O)N[C@@H](CCC(N)=O)C(=O)N[C@@H](CCCNC(=N)N)C(=O)N[C@@H](Cc1ccc(O)cc1)C(=O)N[C@@H](Cc1ccc(O)cc1)C(=O)N[C@H](C(=O)N[C@@H](CCC(=O)O)C(=O)N[C@@H](CC(C)C)C(=O)N[C@@H](CCCNC(=N)N)C(=O)N[C@@H](Cc1c[nH]cn1)C(=O)N[C@@H](Cc1ccc(O)cc1)C(=O)N[C@@H](Cc1ccc(O)cc1)C(=O)N[C@@H](CC(N)=O)C(=O)N[C@@H](Cc1c[nH]c2ccccc12)C(=O)N[C@@H](CC(C)C)C(=O)N[C@H](C(=O)N[C@@H](CCCNC(=N)N)C(=O)N[C@@H](CCC(N)=O)C(=O)N[C@@H](CCCNC(=N)N)C(=O)N[C@@H](Cc1ccc(O)cc1)C(N)=O)[C@@H](C)O)[C@@H](C)O
B6: Compound 139 (peptide)
peptide: Isovaleryl-APEK([AEEA-AEEA-γGlu-C18 diacid])PEEESSPEELQRYYVSLRHYYNWLTRQRY-NH2
SMILES: CC(C)CC(=O)N[C@@H](C)C(=O)N1CCC[C@H]1C(=O)N[C@@H](CCC(=O)O)C(=O)N[C@@H](CCCCNC(=O)COCCOCCNC(=O)COCCOCCNC(=O)CC[C@H](NC(=O)CCCCCCCCCCCCCCCCC(=O)O)C(=O)O)C(=O)N1CCC[C@H]1C(=O)N[C@@H](CCC(=O)O)C(=O)N[C@@H](CCC(=O)O)C(=O)N[C@@H](CCC(=O)O)C(=O)N[C@@H](CO)C(=O)N[C@@H](CO)C(=O)N1CCC[C@H]1C(=O)N[C@@H](CCC(=O)O)C(=O)N[C@@H](CCC(=O)O)C(=O)N[C@@H](CC(C)C)C(=O)N[C@@H](CCC(N)=O)C(=O)N[C@@H](CCCNC(=N)N)C(=O)N[C@@H](Cc1ccc(O)cc1)C(=O)N[C@@H](Cc1ccc(O)cc1)C(=O)N[C@H](C(=O)N[C@@H](CO)C(=O)N[C@@H](CC(C)C)C(=O)N[C@@H](CCCNC(=N)N)C(=O)N[C@@H](Cc1c[nH]cn1)C(=O)N[C@@H](Cc1ccc(O)cc1)C(=O)N[C@@H](Cc1ccc(O)cc1)C(=O)N[C@@H](CC(N)=O)C(=O)N[C@@H](Cc1c[nH]c2ccccc12)C(=O)N[C@@H](CC(C)C)C(=O)N[C@H](C(=O)N[C@@H](CCCNC(=N)N)C(=O)N[C@@H](CCC(N)=O)C(=O)N[C@@H](CCCNC(=N)N)C(=O)N[C@@H](Cc1ccc(O)cc1)C(N)=O)[C@@H](C)O)C(C)C

*1 amine or outer side, *2 acyl side, *3 side chain or, on linkers, in order; H or OH if unused. Side-chain parts run from the residue outwards. The star is where a group is joined. C18 diacid = O=C(O)CCCCCCCCCCCCCCCCC(=O)*; γGlu = O=C(O)[C@H](CCC(=O)[*:2])N[*:1]; Isovaleryl = CC(C)CC(=O)*; AEEA = NCCOCCOCC(=O)O

This experiment addresses T1, human neuropeptide Y2 receptor. Put plainly: radioligand competition (125I-PYY(1-36)), hNPY2R membranes. Summed up: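 Commercial human Y2 receptor membranes (0.5 μg protein/well) were incubated with peptide for 2 h at room temperature in 50 mM HEPES, 5 mM MgCl₂, 1 mM CaCl₂, pH 7.4, with 0.2% ovalbumin. Bound radioligand was separated on PEI-soaked GF/C filters and counted by scintillation, and IC₅₀ came from nonlinear sigmoidal regression.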
Molecule B1 displayed a Ki of 2.31 nM.

Take B2: the Ki is 1.31 nM.

Regarding B3, the Ki turned out to be 1.42 nM.

For B4, the Ki is 0.89 nM.

Molecule B5 registered a Ki of 1.17 nM.

In turn, B6 yielded a Ki of 3.83 nM.

Values taken from patent US20210139548A1 (published 2021).
